Holding throughout (assay): filter binding
For data set [1], the target named is T1, POT1 (Homo sapiens, UniProt Q9NUX5 1-634).
T1 sequence: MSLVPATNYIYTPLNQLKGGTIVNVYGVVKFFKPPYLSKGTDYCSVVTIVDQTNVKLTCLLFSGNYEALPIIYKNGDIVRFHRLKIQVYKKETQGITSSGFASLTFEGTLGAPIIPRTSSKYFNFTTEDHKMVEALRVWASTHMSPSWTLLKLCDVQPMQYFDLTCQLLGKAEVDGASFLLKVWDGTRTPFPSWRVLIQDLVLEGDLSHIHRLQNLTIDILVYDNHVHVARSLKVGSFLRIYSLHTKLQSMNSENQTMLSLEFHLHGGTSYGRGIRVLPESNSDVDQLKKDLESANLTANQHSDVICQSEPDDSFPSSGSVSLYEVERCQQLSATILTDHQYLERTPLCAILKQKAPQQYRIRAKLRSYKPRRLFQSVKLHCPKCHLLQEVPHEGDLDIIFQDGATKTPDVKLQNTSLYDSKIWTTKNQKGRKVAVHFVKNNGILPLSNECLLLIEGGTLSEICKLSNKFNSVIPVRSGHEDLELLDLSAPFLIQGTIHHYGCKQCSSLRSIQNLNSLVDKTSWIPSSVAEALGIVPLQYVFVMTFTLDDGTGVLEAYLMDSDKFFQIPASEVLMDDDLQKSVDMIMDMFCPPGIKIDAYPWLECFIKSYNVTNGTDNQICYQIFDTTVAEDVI

Data set [2] has as its target POT1;TPP1-L23 mutant (Homo sapiens;Homo sapiens, UniProt Q9NUX5;Q96AP0 1-634;3-248, |D62A;G63A;T64A;H65A).
Data set [3] deals with POT1;TPP1-L45 mutant (Homo sapiens;Homo sapiens, UniProt Q9NUX5;Q96AP0 1-634;3-105+=AAAAA+116-248, |internal_change).
For data set [4], the target named is POT1;TPP1 (WT) (Homo sapiens;Homo sapiens, UniProt Q9NUX5;Q96AP0 1-634;3-248, |).

As usually defined, the Kd is a measure of binding affinity in units of concentration. Take GGTTAGGGTTAG (ssDNA) [hT12wt, d(GGTTAG)2]: the dissociation constant (Kd) amounted to 38.2 ± 4.8 nM in data set [1], 27.3 ± 4.2 nM in data set [2], 13.7 ± 5.5 nM in data set [3] and 3.8 ± 0.5 nM in data set [4].

For the origin of these results see publication PMC5137443.
